According to patent US20110201104A1 (SUNGKYUNKWAN UNIVERSITY FOUNDATION FOR CORPORATE …, published 2011):

B1: 3D8 VL protein (light-chain variable domain of anti-DNA antibody 3D8) (other)
VL: DIVMSQSPSSLAVSAGEKVTMSCKSSQSLFNSRTRKNYLAWYQQKPGQSPKLLIYWASTRESGVPDRFTGSGPGTDFTLTISSVQAEDLAVYYCKQSYYHMYTFGSGTKLEIKRAD
notes: Isolated single VL domain of mouse (MRL-lpr/lpr) IgG2a/kappa antibody 3D8; It was expressed in E. coli from vector pIg20L-3D8 VL and purified on IgG-sepharose; This domain was immobilized on the CM5 chip in the SPR assay
B2: 3D8 VH protein (heavy-chain variable domain of anti-DNA antibody 3D8) (other)
VH: EVQLQQSGPELVKPGASVKMSCKASGYTFTSYVMHWVKQKPGQGLEWIGYINPYNDGTKYNEKFKGKATLTSDKSSSTAYMELSSLTSEDSAVYYCARGAYKRGYAMDYWGQGTSVTVSS
notes: Isolated single VH domain of mouse (MRL-lpr/lpr) IgG2a/kappa antibody 3D8; It was expressed in E. coli from vector pIg20H-3D8 VH and purified on IgG-sepharose

Molecular target: the molecule itself
Test: size exclusion chromatography (HPLC, TSK G3000SWXL), phosphate buffer pH 7.4; self-association
Experimental: 0.02 ml of a protein (conc. 5-20 μM) was injected into a TSK G3000SWXL column (TosoHaas, Japan) and a phosphate buffer solution (50 mM sodium phosphate/150 mM NaCl, pH 7.4) was flowed therein at a flow rate of 0.7 ml/min and the chromatogram of the proteins was obtained from the absorbance at 280 nm.

Protein | binding result
B1 | no binding (tested: 5-20 µM)
B2 | no binding (tested: 5-20 µM)
